T1: human GFRAL (UniProtKB-Q6UXVO) (human, UniProt Q6UXV0 19-394)
T1 sequence (looked up): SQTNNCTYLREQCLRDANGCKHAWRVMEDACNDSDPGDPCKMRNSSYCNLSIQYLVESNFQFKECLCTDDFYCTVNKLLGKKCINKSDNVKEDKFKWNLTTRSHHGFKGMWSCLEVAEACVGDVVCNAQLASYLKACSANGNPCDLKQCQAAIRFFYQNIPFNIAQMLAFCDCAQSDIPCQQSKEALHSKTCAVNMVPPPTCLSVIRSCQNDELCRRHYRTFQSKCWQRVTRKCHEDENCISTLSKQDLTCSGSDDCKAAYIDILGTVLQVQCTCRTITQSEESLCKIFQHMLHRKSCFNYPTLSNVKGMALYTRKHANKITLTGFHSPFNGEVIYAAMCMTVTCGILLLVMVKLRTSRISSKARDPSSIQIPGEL


target: T1, human GFRAL (UniProtKB-Q6UXVO); assay: cell-based or functional assay

Binder	Relative activity ratio (native GDF15 EC50: Fc-GDF15 construct EC50), ERK1/2 phosphorylation HTRF in HEK293T cells expressing human GFRAL and RET
Fc-GDF15 fusion protein M29 (Fc fusion) APEAAGGPSVFLFPPKPKDTLMISRTPEVTCVVVDVSQEDPEVQFNWYVDGVEVHNAKTKPREEQFNSTYRVVSVLTVLHQDWLNGKEYKCKVSNKGLPSSIEKTISKAKGQPREPQVYTLPPSQEEMTKNQVSLTCLVKGFYPSDIAVEWESNGQPENNYKTTPPVLDSDGSFFLYSRLTVDKSRWQEGNVFSCSVMHEALHNHYTQESLSLSLGGGGGSGGGGSAPAPAPAPAPAPAPAPAPAPGGGGSGGGGSDHCPLGPGRCCRLHTVRASLEDLGWADWVLSPREVQVTMCIGDCPSQFRAANMHAQIKTSLHRLKPDTVPAPCCVPASYNPMVLIQKTDTGVSLQTYDDLLAKDCHCI	1.26 ratio
Fc-GDF15 fusion protein M35 (Fc fusion) APEAAGGPSVFLFPPKPKDTLMISRTPEVTCVVVDVSQEDPEVQFNWYVDGVEVHNAKTKPREEQFNSTYRVVSVLTVLHQDWLNGKEYKCKVSNKGLPSSIEKTISKAKGQPREPQVYTLPPSQEEMTKNQVSLTCLVKGFYPSDIAVEWESNGQPENNYKTTPPVLDSDGSFFLYSRLTVDKSRWQEGNVFSCSVMHEALHNHYTQESLSLSLGGGGGSGGGGSAPAPAPAPAPAPAPAPAPAPGGGGSGGGGSDHCPLGPGRCCRLHTVRASLEDLGWADWVLSPREVQVTMCIGACPSQFRAANMHAQIKTSLHRLKPDTVPAPCCVPASYNPMVLIQKTDEGVSLQTYDDLLAKDCHCI	0.19 ratio
Fc-GDF15 fusion protein M32 (Fc fusion) APEAAGGPSVFLFPPKPKDTLMISRTPEVTCVVVDVSQEDPEVQFNWYVDGVEVHNAKTKPREEQFNSTYRVVSVLTVLHQDWLNGKEYKCKVSNKGLPSSIEKTISKAKGQPREPQVYTLPPSQEEMTKNQVSLTCLVKGFYPSDIAVEWESNGQPENNYKTTPPVLDSDGSFFLYSRLTVDKSRWQEGNVFSCSVMHEALHNHYTQESLSLSLGGGGGSGGGGSAPAPAPAPAPAPAPAPAPAPGGGGSGGGGSDHCPLGPGRCCRLHTVRASLEDLGWADWVLSPREVQVTMCIGACPSQFRAANTHAQIKTSLHRLKPDTVPAPCCVPASYNPMVLIQKTDTGVSLQTYDDLLAKDCHCI	1.26 ratio
Fc-GDF15 fusion protein M30 (Fc fusion) APEAAGGPSVFLFPPKPKDTLMISRTPEVTCVVVDVSQEDPEVQFNWYVDGVEVHNAKTKPREEQFNSTYRVVSVLTVLHQDWLNGKEYKCKVSNKGLPSSIEKTISKAKGQPREPQVYTLPPSQEEMTKNQVSLTCLVKGFYPSDIAVEWESNGQPENNYKTTPPVLDSDGSFFLYSRLTVDKSRWQEGNVFSCSVMHEALHNHYTQESLSLSLGGGGGSGGGGSAPAPAPAPAPAPAPAPAPAPGGGGSGGGGSDHCPLGPGRCCRLHTVRASLEDLGWADWVLSPREVQVTMCIGACPSQFRSANMHAQIKTSLHRLKPDTVPAPCCVPASYNPMVLIQKTDTGVSLQTYDDLLAKDCHCI	1.51 ratio
Fc-GDF15 fusion protein M33 (Fc fusion) APEAAGGPSVFLFPPKPKDTLMISRTPEVTCVVVDVSQEDPEVQFNWYVDGVEVHNAKTKPREEQFNSTYRVVSVLTVLHQDWLNGKEYKCKVSNKGLPSSIEKTISKAKGQPREPQVYTLPPSQEEMTKNQVSLTCLVKGFYPSDIAVEWESNGQPENNYKTTPPVLDSDGSFFLYSRLTVDKSRWQEGNVFSCSVMHEALHNHYTQESLSLSLGGGGGSGGGGSAPAPAPAPAPAPAPAPAPAPGGGGSGGGGSDHCPLGPGRCCRLHTVRASLEDLGWADWVLSPREVQVTMCIGACPSQFRAANMHAQIKTSLHQLKPDTVPAPCCVPASYNPMVLIQKTDTGVSLQTYDDLLAKDCHCI	0.84 ratio
Fc-GDF15 fusion protein M34 (Fc fusion) APEAAGGPSVFLFPPKPKDTLMISRTPEVTCVVVDVSQEDPEVQFNWYVDGVEVHNAKTKPREEQFNSTYRVVSVLTVLHQDWLNGKEYKCKVSNKGLPSSIEKTISKAKGQPREPQVYTLPPSQEEMTKNQVSLTCLVKGFYPSDIAVEWESNGQPENNYKTTPPVLDSDGSFFLYSRLTVDKSRWQEGNVFSCSVMHEALHNHYTQESLSLSLGGGGGSGGGGSAPAPAPAPAPAPAPAPAPAPGGGGSGGGGSDHCPLGPGRCCRLHTVRASLEDLGWADWVLSPREVQVTMCIGACPSQFRAANMHAQIKTSLHRLKPDTVPAPCCVPSSYNPMVLIQKTDTGVSLQTYDDLLAKDCHCI	0.9 ratio
Fc-GDF15 fusion protein M36 (Fc fusion) APEAAGGPSVFLFPPKPKDTLMISRTPEVTCVVVDVSQEDPEVQFNWYVDGVEVHNAKTKPREEQFNSTYRVVSVLTVLHQDWLNGKEYKCKVSNKGLPSSIEKTISKAKGQPREPQVYTLPPSQEEMTKNQVSLTCLVKGFYPSDIAVEWESNGQPENNYKTTPPVLDSDGSFFLYSRLTVDKSRWQEGNVFSCSVMHEALHNHYTQESLSLSLGGGGGSGGGGSAPAPAPAPAPAPAPAPAPAPGGGGSGGGGSDHCPLGPGRCCRLHTVRASLEDLGWADWVLSPREVQVTMCIGACPSQFRAANMHAQIKTSLHRLKPDTVPAPCCVPASYNPMVLIQKTDTGVSLQTYDDLLAQDCHCI	0.82 ratio
Fc-GDF15 fusion protein M31 (Fc fusion) APEAAGGPSVFLFPPKPKDTLMISRTPEVTCVVVDVSQEDPEVQFNWYVDGVEVHNAKTKPREEQFNSTYRVVSVLTVLHQDWLNGKEYKCKVSNKGLPSSIEKTISKAKGQPREPQVYTLPPSQEEMTKNQVSLTCLVKGFYPSDIAVEWESNGQPENNYKTTPPVLDSDGSFFLYSRLTVDKSRWQEGNVFSCSVMHEALHNHYTQESLSLSLGGGGGSGGGGSAPAPAPAPAPAPAPAPAPAPGGGGSGGGGSDHCPLGPGRCCRLHTVRASLEDLGWADWVLSPREVQVTMCIGACPSQFRAENMHAQIKTSLHRLKPDTVPAPCCVPASYNPMVLIQKTDTGVSLQTYDDLLAKDCHCI	0.87 ratio
Fc-GDF15 fusion protein M51 (Fc fusion) APEAAGGPSVFLFPPKPKDTLMISRTPEVTCVVVDVSQEDPEVQFNWYVDGVEVHNAKTKPREEQFNSTYRVVSVLTVLHQDWLNGKEYKCKVSNKGLPSSIEKTISKAKGQPREPQVYTLPPSQEEMTKNQVSLTCLVKGFYPSDIAVEWESNGQPENNYKTTPPVLDSDGSFFLYSRLTVDKSRWQEGNVFSCSVMHEALHNHYTQNSLSLSLGGGGGSGGGGSAPAPAPAPAPAPAPAPAPAPGGGGSGGGGSDHCPLGPGRCCRLHTVRASLEDLGWADWVLSPREVQVTMCIGACPSQFRAANMHAQIKTSLHRLKPDTVPAPCCVPASYNPMVLIQKTDTGVSLQTYDDLLAKDCHCI	3.16 ratio
Fc-GDF15 fusion protein M39 (Fc fusion) APEAAGGPSVFLFPPKPKDTLMISRTPEVTCVVVDVSQEDPEVQFNWYVDGVEVHNAKTKPREEQFNSTYRVVSVLTVLHQDWLNGKEYKCKVSNKGLPSSIEKTISKAKGQPREPQVYTLPPSQEEMTKNQVSLTCLVKGFYPSDIAVEWESNGQPENNYKTTPPVLDSDGSFFLYSRLTVDKSRWQEGNVFSCSVMHEALHNHYTQQSLSLSLGGGGGSGGGGSAPAPAPAPAPAPAPAPAPAPGGGGSGGGGSGDHCPLGPGRCCRLHTVRASLEDLGWADWVLSPREVQVTMCIGACPSQFRAANMHAQIKTSLHRLKPDTVPAPCCVPASYNPMVLIQKTDTGVSLQTYDDLLAKDCHCI	2.62 ratio
Fc-GDF15 fusion protein M3 (Fc fusion) APEAAGGPSVFLFPPKPKDTLMISRTPEVTCVVVDVSQEDPEVQFNWYVDGVEVHNAKTKPREEQFNSTYRVVSVLTVLHQDWLNGKEYKCKVSNKGLPSSIEKTISKAKGQPREPQVYTLPPSQEEMTKNQVSLTCLVKGFYPSDIAVEWESNGQPENNYKTTPPVLDSDGSFFLYSRLTVDKSRWQEGNVFSCSVMHEALHNHYTQESLSLSLGGGGGSGGGGSAPAPAPAPAPAPAPAPAPAPGGGGSGGGGSGDHCPLGPGRCCRLHTVRASLEDLGWADWVLSPREVQVTMCIGACPSQFRAANMHAQIKTSLHRLKPDTVPAPCCVPASYNPMVLIQKTDTGVSLQTYDDLLAKDCHCI	4.53 ratio
Fc-GDF15 fusion protein M50 (Fc fusion) APEAAGGPSVFLFPPKPKDTLMISRTPEVTCVVVDVSQEDPEVQFNWYVDGVEVHNAKTKPREEQFNSTYRVVSVLTVLHQDWLNGKEYKCKVSNKGLPSSIEKTISKAKGQPREPQVYTLPPSQQEMTKNQVSLTCLVKGFYPSDIAVEWESNGQPENNYKTTPPVLDSDGSFFLYSRLTVDKSRWQEGNVFSCSVMHEALHNHYTQQSLSLSLGGGGGSGGGGSAPAPAPAPAPAPAPAPAPAPGGGGSGGGGSGDHCPLGPGRCCRLHTVRASLEDLGWADWVLSPREVQVTMCIGACPSQFRAANMHAQIKTSLHRLKPDTVPAPCCVPASYNPMVLIQKTDTGVSLQTYDDLLAKDCHCI	1.5 ratio
Fc-GDF15 fusion protein M37 (Fc fusion) APEAAGGPSVFLFPPKPKDTLMISRTPEVTCVVVDVSQEDPEVQFNWYVDGVEVHNAKTKPREEQFNSTYRVVSVLTVLHQDWLNGKEYKCKVSNKGLPSSIEKTISKAKGQPREPQVYTLPPSQEEMTKNQVSLTCLVKGFYPSDIAVEWESNGQPENNYKTTPPVLDSDGSFFLYSRLTVDKSRWQEGNVFSCSVMHEALHNHYTQESLSLSLGGGGGSGGGGSAPAPAPAPAPAPAPAPAPAPGGGGSGGGGSCRLHTVRASLEDLGWADWVLSPREVQVTMCIGACPSQFRAANMHAQIKTSLHRLKPDTVPAPCCVPASYNPMVLIQKTDTGVSLQTYDDLLAKDCHCI	3.17 ratio
